According to paper PMC8608356:

Columns and labels:
Assay in all cases: BLI
Conditions in all cases: biotinylated; BLI (BLItz): 20 mM Tris-HCl pH 7.4, 80 mM NaCl, 20 mM KCl, 1 mM DTT, room temperature; […] (Triton X-100, Tween-20)
[1] = test system: CCHFV N protein stalk domain (Crimean Congo Hemorrhagic fever virus strain 10200?)
[2] = test system: CCHFV nucleocapsid (N) protein, wild type (Crimean Congo Hemorrhagic fever virus strain 10200)
[3] = test system: CCHFV nucleocapsid (N) protein, wild type (Crimean Congo Hemorrhagic fever virus strain 10200); remark: listed apart in the source
[4] = test system: CCHFV N protein stalk domain (Crimean Congo Hemorrhagic fever virus strain 10200?); remark: listed apart in the source
[5] = test system: CCHFV nucleocapsid (N) protein, wild type (Crimean Congo Hemorrhagic fever virus strain 10200); remark: listed apart in the source

In the case of CCHFV S-segment mRNA 5' UTR, the Kd [1] is reported as 36.7 nM, the Kd [2] is reported as 37.3 nM and the Kd [3] is reported as 67 nM. The Kd [4] was 54 nM and the Kd [5] was 54 nM.
